Laboratory results from US10925971B2, “Methods of treating PRLR positive breast cancer” (Regeneron Pharmaceuticals, Inc., priority 2016, dated 2021).

What was measured:
PC3 cells = assay: In vitro cell viability (cell kill) assay, CCK8; assay type: cell-based, human
Description: (§1) PRLR-overexpressing cells, including HEK293, PC3, MCF7 and NCI-N87, were generated to assess the ability of anti-PRLR conjugated antibodies to reduce cell viability. For comparative purposes, PC3 and T47D cells with overexpressed ErbB2 were also generated, as well as an MCF7 cell line over-expressing both hPRLR and hErbB2. Briefly, Lipofectamine® 2000-mediated transfection methodology was utilized to generate HEK293 cells expressing human PRLR (HEK293/hPRLR) or human ErbB2 (HEK293/hErbB2). Lipofectamine LTX with Plus Reagent was used to generate PC3 cells expressing human PRLR (PC3/hPRLR) or human ErbB2 (PC3/hErbB2). Lentiviral-mediated transduction was utilized to generate MCF7 cells expressing human PRLR (MCF7/hPRLR), NCI-N87 cells expressing human PRLR (NCI-N87/hPRLR), T47D cells over-expressing human ErbB2 (T47D/hErbB2), and MCF7 cells expressing both human PRLR and human ErbB2 (MCF7/hPRLR/hErbB2). All lines were selected for at least two weeks in complete growth media plus appropriate selection reagents. Stably expressing populations were enriched for PRLR expression via FACS using the anti PRLR antibody Control I.
(§2) Next, the ability of anti-PRLR-DM1 antibody-drug conjugates (i.e., anti-PRLR antibodies conjugated to DM1 via a non-cleavable linker [SMCC]) to reduce cell viability was determined using in vitro cell based assays. Cells were seeded in PDL-coated 96 well plates at 1500 to 10000 cells per well in complete growth media and allowed to grow overnight. For cell viability curves, ADCs or free DM1 (as the methyl disulfide derivative DM1-SMe) were added to the cells at final concentrations ranging from 500 nM to 5 pM and incubated for 3 days. The 293, PC3 and T47D cells were incubated with CCK8 (Dojindo, Rockville, Md.) for the final 1-3 hours and the absorbance at 450 nm (OD450) was determined on a Flexstation3 (Molecular Devices, Sunnyvale, Calif.). MCF7 cells were treated with Hoechst 33342 nuclear stain while being fixed with 4% formaldehyde. Images were acquired on the ImageXpress micro XL (Molecular Devices, Sunnyvale, Calif.) and nuclear counts were determined via Columbus image analysis software (Perkin Elmer, Shelton, Conn.). Background OD450 values (PC3, 293, and T47D) or nuclear counts (MCF7) from digitonin (40 nM) treated cells was subtracted from all wells and viability was expressed as a percentage of the untreated controls. IC50 values were determined from a four-parameter logistic equation over a 10-point response curve (GraphPad Prism).

HEK293 (293) cells = assay: In vitro cell viability (cell kill) assay, CCK8; assay type: cell-based, human; details: 293; Table 19
Description: as §1, §2

| Molecule | % Kill (PC3 cells; Table 18) [%] | IC50 (HEK293 (293) cells) [nM] | further results |
| --- | --- | --- | --- |
| H1H6953N-SMCC-DM1 (conjugate) VH: EVQLLESGGGLVQPGGTLRLSCAASGFTFSAYAMSWVRQAPGKGLEWVSSINVRAGDTYYADSVKGRFTISRDNSKNTLFLLMNSLRAEDTAAYYCAKARYSSNWGFDFWGQGTLVTVSS VL: DIVMTQSPDSLTVSLGARTTINCQSSQTILHSSNNHNYLAWYQQKPGLPPKLLIYWSSTRESGVPDRFSGSGSGTDFTLTISSLQAEDVAIYYCQQYSNTPYTFGQGTKLEIN | 81 |  |  |
| H1H6953N-mc-VC-PAB-MMAE (conjugate) VH: EVQLLESGGGLVQPGGTLRLSCAASGFTFSAYAMSWVRQAPGKGLEWVSSINVRAGDTYYADSVKGRFTISRDNSKNTLFLLMNSLRAEDTAAYYCAKARYSSNWGFDFWGQGTLVTVSS VL: DIVMTQSPDSLTVSLGARTTINCQSSQTILHSSNNHNYLAWYQQKPGLPPKLLIYWSSTRESGVPDRFSGSGSGTDFTLTISSLQAEDVAIYYCQQYSNTPYTFGQGTKLEIN | 49 |  | IC50 (PC3 cells; Table 18): 130 nM |
| H1H6953N-mc-VC-PAB-MeNHC3-May (conjugate) VH: EVQLLESGGGLVQPGGTLRLSCAASGFTFSAYAMSWVRQAPGKGLEWVSSINVRAGDTYYADSVKGRFTISRDNSKNTLFLLMNSLRAEDTAAYYCAKARYSSNWGFDFWGQGTLVTVSS VL: DIVMTQSPDSLTVSLGARTTINCQSSQTILHSSNNHNYLAWYQQKPGLPPKLLIYWSSTRESGVPDRFSGSGSGTDFTLTISSLQAEDVAIYYCQQYSNTPYTFGQGTKLEIN |  |  | % Kill (HEK293 (293) cells): 20% |
| H1H6953N-mc-VC-PAB-MMD (conjugate) VH: EVQLLESGGGLVQPGGTLRLSCAASGFTFSAYAMSWVRQAPGKGLEWVSSINVRAGDTYYADSVKGRFTISRDNSKNTLFLLMNSLRAEDTAAYYCAKARYSSNWGFDFWGQGTLVTVSS VL: DIVMTQSPDSLTVSLGARTTINCQSSQTILHSSNNHNYLAWYQQKPGLPPKLLIYWSSTRESGVPDRFSGSGSGTDFTLTISSLQAEDVAIYYCQQYSNTPYTFGQGTKLEIN |  | 110 |  |
| H1H6975P-mc-VC-PAB-MMD (conjugate) VH: EVHLVESGGGLVQPGGSLRLSCAASGFTFSSYEMNWVRQTPGKGLEWISHISSRSVIIYYADSVKGRFTISRDNAKNSLFLQMNSLRAEDTAVYFCAGITIFGIPEYWGQGTLVTVSS VL: EIVLTQSPATLSLSPGERATLSCRASQSVSSYFAWYQQKPGQAPRLLIYDASSRATGIPTRFSGSGSGTDFTLTISSLEPEDFAVYYCQQRSSWPITFGQGTRLEIK |  | 110 |  |
| H1H6800P-DM1 (conjugate) VH: EVQLVESGGGLVQPGRSLRLSCAASGFTFDGYAMHWVRQGPGKGLEWVSGISWYSDTLGYADSVKGRFTISRDNAKNSLYLQMNSLRTEDTAFYYCAKISSSGWAFDYWGQGTLVTVSS VL: EIVLTQSPGTLSLSPGERATLSCRASHSVSSAYLAWYQQKPGQTPRLLIYGTSSRATGIPDRFSGSGSGTDFTLTISRLEPEDFAVYYCQQYGSSPLFTFGPGTKVDIK |  |  | % Kill (PC3 cells; Table 11, 3 days): 72% |
| H1H6765P-SMCC-DM1 (conjugate) VH: EVQLVESGGGVVRPGGSLRLSCVGSGFSFDDHGMNWVRQGPGKGLEWVSGFNWNGGSTNYAESVKGRFTISRDNARNSLFLQMNSLRAEDTALYYCVRGRSGWFNDAFDVWGPGTMVTVSS VL: EIVLTQSPGTLSLSPGERATLSCRASQTINSNYLAWYRQKPGQTPRLLIYGTSSRATGIPDRFSGSGSGTDFSLTISRLEPEDFAVFYCQQYAGLPTFGPGTKVDIK | 80 |  | IC50 (PC3 cells; Table 18): 80 nM |
| H1H6765P-mc-VC-PAB-MMAE (conjugate) VH: EVQLVESGGGVVRPGGSLRLSCVGSGFSFDDHGMNWVRQGPGKGLEWVSGFNWNGGSTNYAESVKGRFTISRDNARNSLFLQMNSLRAEDTALYYCVRGRSGWFNDAFDVWGPGTMVTVSS VL: EIVLTQSPGTLSLSPGERATLSCRASQTINSNYLAWYRQKPGQTPRLLIYGTSSRATGIPDRFSGSGSGTDFSLTISRLEPEDFAVFYCQQYAGLPTFGPGTKVDIK | 29 |  |  |
| H1H6782P-mc-VC-PAB-MMD (conjugate) VH: EVQLVESGGGLVQPGRSLRLSCAASGFTFDDYAMHWVRQAPGKGLEWVSGIIWNSGHIGYGDSVKGRFTISRDNAKKSLYLQMNSLRAEDTALYYCARDSGRYQSYFDYWGQGTLVTVSS VL: DIQMTQSPSTLSASVGDRVTITCRASHIISSWLAWYQQKPGKAPKVLIFKASSLESGVPSRFSGSGSGTEFTLTISSLQPDDFATYYCQQYNTYSRTFGQGTKVEIK |  | 230 |  |
| H1H6782P-mc-VC-PAB-MeNHC3-May (conjugate) VH: EVQLVESGGGLVQPGRSLRLSCAASGFTFDDYAMHWVRQAPGKGLEWVSGIIWNSGHIGYGDSVKGRFTISRDNAKKSLYLQMNSLRAEDTALYYCARDSGRYQSYFDYWGQGTLVTVSS VL: DIQMTQSPSTLSASVGDRVTITCRASHIISSWLAWYQQKPGKAPKVLIFKASSLESGVPSRFSGSGSGTEFTLTISSLQPDDFATYYCQQYNTYSRTFGQGTKVEIK |  | 60 |  |
